# Measurements: the nanobody polyreactivity screen of Harvey et al. (2022)
# Test: yeast display, Sf9 membrane polyspecificity reagent, FACS + sequencing; frameworks hold sequencing errors
# Summary of the method: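 Sorting gates, low and high (top ~1%), were placed on anti-HA fluorescence to track expression and on streptavidin fluorescence to track reagent binding. A clone's polyreactivity label is taken from the gate it came out of. The reagent was 10% biotinylated, detergent-solubilized Sf9 membrane, applied for 1 hour at 4 °C to galactose-induced yeast display cells.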
row,Sequence,polyreactivity (PSR sort gate)
1,QVQLVESGGGLVQAGGSLRLSCAASGFTFFYYAIRWYRQAPGKEREVVAAISSNGGRTYYADSVKGRFTISRDNAKNTVYLQMYSLKPEDTAVYYCTALRYVVYFDDDYWGQGTQVTVSS,high polyreactivity
2,QVQLVESGGGLVQAGGSLRLSCAASGFTFFYYAMGWYRKAPGKERELVARISSSGGRTYYSDSVKGRFTISRDNAKNTVYLQMNSLKPEDTAVYYCNARYYYYYTRYDYWGQGTQVTVSS,high polyreactivity
3,QVQLVESGGGLVQAGGSLRLSCAASGFTFGANVMGWYRQAPGKERELVAAINTRGSRTYYADSVKGRFTISRDHAKNTVYLQMNRLKQEDTAVYYCAAALRKEYDYWGQGTQVTVSS,high polyreactivity
4,QVQLVESGGGLVQAGGSLRLSCAASGFTFGDYAMGWYRQAPGKERELVAAISWSGGRTSYADSVKGRFTISRDNAKNTVYLQMNSLKPEDTAVYYCAARYRYAYTSFPFYYWGQGTQVTVSS,high polyreactivity
5,QVQLVESGGGLVQAGGSLRLSCAASGFTFGDYAMGWYRQAPGKERELVAVISSGGSTYYADSVKGRFTISRDNAKNTVYLQMNSLKPEDTAVYYCAKYVFRVWYHVFEVDYWGQGTQVTVSS,low polyreactivity
6,QVQLVESGGGLVQAGGSLRLSCAASGFTFGENAMGWYRQAPGKERELVATISDSGDSTYYADSVKGRFTISRDNAKNTVYLQMNSLKPEDTAVYYCAAPLPHRGYDEGYWGQGTQVTVSS,low polyreactivity
7,QVQLVESGGGLVQAGGSLRLSCAASGFTFGEYAMGWYRQEPGKERELVATISSGVGTNYADSVKGRFTISRDNAKNTVYLQMNSLKPVDTAVYYCNARGRGSDVRVYVDEGDYWGQGTQVTVSS,low polyreactivity
8,QVQLVESGGGLVQAGGSLRLSCAASGFTFGFYAMGWYRQAPGKERELVASITTRGGSTRYADSVKGRFTISRDNAKNTVYLQMNSLKPEDTAVYYCAAQYSYVRYLKRGYGYWGQGTQVTVSS,high polyreactivity
9,QVQLVESGGGLVQAGGSLRLSCAASGFTFGGNAMGWYRQAPGKERELVAAISGRGGRTFYADSVKGRFTISRDNAKNTVYLQMNSLKPEDTGVYYCAAYYRYDVGAYDYWGQGTQVTVSS,high polyreactivity
10,QVQLVESGGGLVQAGGSLRLSCAASGFTFGGNPMGWYRQAPGKERELVAAIRRGGSTYYADSVKGRFTISRDNAKNTVYLQMNSLKPEDTAVYYCAAAIPGKYSNDDWGQGTQVTVSS,high polyreactivity
11,QVQLVESGGGLVQAGGSLRLSCAASGFTFGGYAMGWYRQAPGKERELVAAIDSSGGRTYYADSVKGRFTISRDNAKNTVYLQMNSLKPEDTAVYYCNAGNSGWWRYDYDYWGQGTQVTVSS,high polyreactivity
12,QVQLVESGGGLVQAGGSLRLSCAASGFTFGGYAMGWYRQAPGKERELVAAINSIGGTTYYADSVKGRFTISRDNAKNTVYLQMNRLKPEDTAVYYCAAGFYGYARHTWYNYWGQGTQVTVSS,high polyreactivity
13,QVQLVESGGGLVQAGGSLRLSCAASGFTFGGYAMGWYRQAPGKEREMVAGISGSGGRTYYADSVKGRFTISRDNAKNTVYLQMNSLKPEDTAVYYCGADRASPYLEYYWGLGTQVTVSS,low polyreactivity
14,QVQLVESGGGLVQAGGSLRLSCAASGFTFGHNDMGWYRQAPGKERELVASITQSGGSTYYADSVKGRFTISRDNAKNTVYLQMNSLKPEDTAVYYCAKDLYQSAFITKYDYWGQGTQVTVSS,low polyreactivity
15,QVQLVESGGGLVQAGGSLRLSCAASGFTFGHYARGWSRQAPGKERELVAAISRSGGTTSYADSVKGRFTISRDNAKNTVYLQMNSLKTEDTAVYYCNKDYIWARYGGGRDYWGQGTQVTVSS,low polyreactivity
16,QVQLVESGGGLVQAGGSLRLSCAASGFTFGINAMGWYRQAPGKERELVAAINQSGDRTYYADSVKGRFTISRDNAKNTVYLQMNSLKPEDTAVYYCAALSTYRTWYGYWGQGTQVTVSS,high polyreactivity

row,Sequence,polyreactivity (PSR sort gate)
1,QVQLVESGGGLVQAGGSLRLSCAASGFTFGIYAMGWYRPATVKERELVAAISSSGGSTYYADSVKGRFTISRDNAKHTVYLQMNSLKPEDTAVYYCNAGALYRVYPYRGKLAYITYDSWGQGTQVTVSS,high polyreactivity
2,QVQLVESGGGLVQAGGSLRLSCAASGFTFGIYAMGWYRQAPGKERELVADISSGGSTYYADSVKGRFTISRDNAKNTVYLQMNSLKPEDTAVYYCARDSWWYHHYDYWGQGTQVTVSS,low polyreactivity
3,QVQLVESGGGLVQAGGSLRLSCAASGFTFGIYDMGWYRQAPGKERELVAAISWRGVSTYYADSVKGRFRISRDNAKNTVYLQMNSLKPEDTAVYYCNAVDTDGDLYPINYPYDYGYDYWGQGTQVTVSS,low polyreactivity
4,QVQLVESGGGLVQAGGSLRLSCAASGFTFGKYAMGWYRQAPGKERELVAAITWSGGRTYYADSVKGRFTISRDNAKNTVYLQMNSLKPEDTAVYYCNKVYLYSSLARPYDYWGQGTQVTVSS,high polyreactivity
5,QVQLVESGGGLVQAGGSLRLSCAASGFTFGNNAMGWYRQAPGKERELVAAISKRGSSTYYADSVKGRFTISRDNAKNTVYLQMNSLKPEDTAVYYCAAPRSRSRTSRFDYWGQGTQVTVSS,high polyreactivity
6,QVQLVESGGGLVQAGGSLRLSCAASGFTFGNNGMGWYRQAPGKERELVASISGGGDSTYYADSVKGRFTISRDNAKYTVYLQMNSLKREDTAVYYCAADYRQEPGYTGYYYWGQGTQVTVSS,low polyreactivity
7,QVQLVESGGGLVQAGGSLRLSCAASGFTFGQYVMGWYRQAPGKERELVAAISFSGGSTYYADSVKGRFTISRDNAKNTVSVQMTSLKPEDTAVYYCAADVNVLYLLRFSHRSNYGYWGQGTQVTVSS,high polyreactivity
8,QVQLVESGGGLVQAGGSLRLSCAASGFTFGRKALGWYRQAPGKERELVAAISSSEHFYVRRLLKGRFTISRENAKNTVYLQMNSLKPEDTAVYYCATDNSGEVEYWGQGTQVTVSS,high polyreactivity
9,QVQLVESGGGLVQAGGSLRLSCAASGFTFGRNAMGWYRQAPGKERELVAAISRGGSTYYADSVKGRFTISRDNAKNTVYLQMNSLKPEDTAVYYCAAETFLKPQYFKKFGYWGQGTQVTVSS,high polyreactivity
10,QVQLVESGGGLVQAGGSLRLSCAASGFTFGRNTMGWYRQAPGKERELVAAIDSGGNTYADSVKGRFTISRDNAKNTVYLQMNSLKPEDTAVYYCAVDVGEFSSYGYWGQGTQVTVSS,low polyreactivity
11,QVQLVESGGGLVQAGGSLRLSCAASGFTFGRNVIGWYRQAPGKERELVAAISLSGGSTYYADSVKGRFTISRDNAKNTVYLQMNSLKPEDTAVYYCAAGYITWYDYWGQGTQVTVSS,high polyreactivity
12,QVQLVESGGGLVQAGGSLRLSCAASGFTFGRYAMGWYRQAPGKEREFVAAITWSGGGTYYADSVKGRFTISRDNAKYTVYLQMYSLKPEDTAVYYCAADRRAYGGGYWGQGTQVTVSS,high polyreactivity
13,QVQLVESGGGLVQAGGSLRLSCAASGFTFGRYAMGWYRQAPGKERELVAAISFSGGRTYYADSVKGRFTISRDNAKNTVYLQMNSLKPEDTAVYYCAARRRQEHVGRSSYARYDYWGQGTQVTVSS,high polyreactivity
14,QVQLVESGGGLVQAGGSLRLSCAASGFTFGRYAMGWYRQAPGKERELVASISRSGGSTNYADSVKGRFTISRDNAKNTVYLQMNSLKPEDTAVYYCAAVKGRRYDYWGQGTQVTVSS,high polyreactivity
15,QVQLVESGGGLVQAGGSLRLSCAASGFTFGRYAMGWYRQAPGKERELVATISRSGGRTYYADSVKGRFTISRDIAKKTVYLQMNSLKPEDTAVYYCAADTRNYPRYDYWGQGTQVTVSS,high polyreactivity
